Results published in patent US4609623A, “Microbiologically produced D-2-hydroxy-4-methylpentanoic acid dehydrogenase, process for its production and its use” (Degussa AG, priority 1983, dated 1986).
One block for each molecule: values may come before it.

Assays:
[1] = molecular target: T1, D-2-hydroxy-4-methylpentanoic acid dehydrogenase (Lacticaseibacillus paracasei, UniProt P17584); test: Reduction kinetics: reaction velocity versus NADH and 2-ketocarboxylic acid concentration; format: biochemical, Lactobacillus casei ssp. pseudoplantarum; design: endogenous in cells; host or cells: Lactobacillus casei ssp. pseudoplantarum DSM 20008, enzyme isolated from the cells grown in house
T1 sequence (P17584 1-333): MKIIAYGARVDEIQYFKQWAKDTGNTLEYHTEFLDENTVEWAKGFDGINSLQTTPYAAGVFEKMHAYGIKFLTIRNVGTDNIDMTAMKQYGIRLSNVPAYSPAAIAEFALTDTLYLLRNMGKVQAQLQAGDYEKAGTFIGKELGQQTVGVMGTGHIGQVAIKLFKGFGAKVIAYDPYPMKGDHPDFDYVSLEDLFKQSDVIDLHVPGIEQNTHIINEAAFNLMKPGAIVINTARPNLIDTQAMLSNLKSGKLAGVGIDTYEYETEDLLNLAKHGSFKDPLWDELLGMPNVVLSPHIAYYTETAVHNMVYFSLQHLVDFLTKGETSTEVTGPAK
Protocol: The reaction speed for reduction of different 2-ketocarboxylic acids was also investigated as a function of the keto acid concentration. […] The ketocarboxylic acid concentration was in each case varied from 0.01 to a maximum of 60 mM. The initial reaction velocity, change of extinction at 340 nm/min, was evaluated by non-linear regression of the Michaelis-Menten equation.

[2] = molecular target: T1, D-2-hydroxy-4-methylpentanoic acid dehydrogenase; test: Dehydrogenation kinetics: reaction velocity versus NAD+ and 2-hydroxycarboxylic acid concentration
Protocol: The dependence of the reaction velocity on the NAD^+ concentration in the dehydrogenation of D-2-hydroxy-4-methylpentanoic acid was studied in the following test mixture: 0.1M phosphate buffer at pH 8.0, 12 mM D,L-2-hydroxy-4-methylpentanoic acid, limiting quantities of enzyme.
The dependence of the reaction speed on the concentration of different 2-hydroxycarboxylic acids for the dehydrogenation of D-2-hydroxycarboxylicacids was tested in the following test mixture: 0.1M phosphate buffer at pH 8.0, 4.5 mM NAD^+ and limiting quantities of enzyme. The concentration of D-2-hydroxycarboxylic acid was varied in the range from 0.1 to a maximum of 30 mM. Inasmuch as no chiral D-2-hydroxycarboxylic acid was available, the racemate was added. […] The initial reaction velocity was evaluated according to Michaelis-Menten, and the kinetic constants Vmax and KM determined by non-linear regression.

[3] = molecular target: T1, D-2-hydroxy-4-methylpentanoic acid dehydrogenase; test: Reduction of 2-ketocarboxylic acids in an enzyme membrane reactor with PEG-NADH, polarimetric read-out; format: biochemical, Lactobacillus casei ssp. pseudoplantarum (DSM 20008); design: endogenous in cells; host or cells: Lactobacillus casei ssp. pseudoplantarum DSM 20008, enzyme isolated from the cells grown in house; conditions: 7.0 mM 2-ketocarboxylic acid feed, stationary value; for Rotation of Production Solution: 463 nm, 25° C.
Protocol: (Preparation according to DE-PS 28 41 414). The following keto acids were converted individually in the reactor:
2-keto-4-methylpentanoic acid (sodium salt), 2-keto-4-(methylmercapto)-butyric acid (sodium salt) and phenyl pyruvate (sodium salt). The product stream flowing out of the membrane reactor was analyzed continuously in a polarimeter. The signals obtained were evaluated by means of calibration curves which had been obtained from optically active 2-hydroxy acids.
The PEG-NADH is prepared according to DE-PS No. 28 41 414. […] The reactor volume is kept constant, by adding keto acid and sodium formate buffer from a reservoir at the same rate as the ultrafiltrate leaves the reactor. The reactor volume was 10 ml, the concentration of PEG-NADH 0.20 mM, and 9 U D-2-hydroxy-4-methylpentanoic acid dehydrogenase (27 U/mg) and 30 U formate-dehydrogenase were fed into the reactor. The substrate solution contained 300 mM sodium formate buffer of pH 7.0 and 7.0 mM of the corresponding 2-ketocarboxylic acid. The reaction solution was pumped over the membrane continuously with a peristaltic pump at 30 ml/hour. About 3 ml ultrafiltrate per hour was obtained. The ultrafiltrate was led continuously through a polarimeter cell (Perkin Elmer Type 241). The determinations were carried out at 463 nm and 25° C. From the measured rotatory value, the product concentration was determined from a calibration curve. The calibration curves were prepared with optically active 2-hydroxycarboxylic acids in 300 mM sodium formate buffer of pH 7.0. For this, the following preparations were used: L-phenyllactic acid (Sigma Company, Munich), L-2-hydroxy-4-methylpentanoic acid (Sigma Company, Munich), and D-2-hydroxy-4-(methylmercapto)-butyric acid (Degussa Company, Hanau). The conversion in the membrane reactor was followed over a period of 15 hours.

[4] = substrate: CC(C)CC(O)C(=O)O; test: purified protein, by the assay type; conditions: other: dehydrogenation, pH 8.0, 4.5 mM NAD+, calculated assuming 50% D-acid in the racemic mixtures
[5] = substrate: CC(C)C[C@@H](O)C(=O)O; test: purified protein, by the assay type; conditions: other: dehydrogenation, pH 8.0, 4.5 mM NAD+, calculated assuming 50% D-acid in the racemic mixtures
[6] = substrate: CCCC(O)C(=O)O; test: purified protein, by the assay type; conditions: other: dehydrogenation, pH 8.0, 4.5 mM NAD+, calculated assuming 50% D-acid in the racemic mixtures
[7] = substrate: CCCCC(O)C(=O)O; test: purified protein, by the assay type; conditions: other: dehydrogenation, pH 8.0, 4.5 mM NAD+, calculated assuming 50% D-acid in the racemic mixtures
[8] = substrate: CCCCCCC(O)C(=O)O; test: purified protein, by the assay type; conditions: other: dehydrogenation, pH 8.0, 4.5 mM NAD+, calculated assuming 50% D-acid in the racemic mixtures
[9] = substrate: CSCCC(O)C(=O)O; test: purified protein, by the assay type; conditions: other: dehydrogenation, pH 8.0, 4.5 mM NAD+, calculated assuming 50% D-acid in the racemic mixtures
[10] = substrate: NC(=O)C1=CN([C@@H]2O[C@H](COP(=O)(O)OP(=O)(O)OC[C@H]3O[C@@H](n4cnc5c(N)ncnc54)[C@H](O)[C@@H]3O)[C@@H](O)[C@H]2O)C=CC1; test: purified protein, by the assay type; conditions: other: pH 7.0, 0.7 mM 2-keto-4-methylpentanoic acid
[11] = substrate: NC(=O)c1ccc[n+]([C@@H]2O[C@H](COP(=O)([O-])OP(=O)(O)OC[C@H]3O[C@@H](n4cnc5c(N)ncnc54)[C@H](O)[C@@H]3O)[C@@H](O)[C@H]2O)c1; test: purified protein, by the assay type; conditions: other: pH 8.0, 12 mM D,L-2-hydroxy-4-methylpentanoic acid
[12] = substrate: O=C(O)C(=O)Cc1ccccc1; test: purified protein, by the assay type; conditions: other: reduction, pH 7.0, 0.1 mM NADH
[13] = substrate: O=C(O)C(O)Cc1ccccc1; test: purified protein, by the assay type; conditions: other: dehydrogenation, pH 8.0, 4.5 mM NAD+, calculated assuming 50% D-acid in the racemic mixtures
[14] = substrate: CC(C)C(=O)C(=O)O; test: purified protein, by the assay type; format: biochemical, Lactobacillus casei ssp. pseudoplantarum; conditions: other: reduction, pH 7.0, 0.1 mM NADH
[15] = substrate: CC(C)CC(=O)C(=O)O; test: purified protein, by the assay type; format: biochemical, Lactobacillus casei ssp. pseudoplantarum; conditions: other: reduction, pH 7.0, 0.1 mM NADH
[16] = substrate: CCC(=O)C(=O)O; test: purified protein, by the assay type; format: biochemical, Lactobacillus casei ssp. pseudoplantarum; conditions: other: reduction, pH 7.0, 0.1 mM NADH
[17] = substrate: CCC(C)C(=O)C(=O)O; test: purified protein, by the assay type; format: biochemical, Lactobacillus casei ssp. pseudoplantarum; conditions: other: reduction, pH 7.0, 0.1 mM NADH
[18] = substrate: CCCC(=O)C(=O)O; test: purified protein, by the assay type; format: biochemical, Lactobacillus casei ssp. pseudoplantarum; conditions: other: reduction, pH 7.0, 0.1 mM NADH
[19] = substrate: CCCCC(=O)C(=O)O; test: purified protein, by the assay type; format: biochemical, Lactobacillus casei ssp. pseudoplantarum; conditions: other: reduction, pH 7.0, 0.1 mM NADH
[20] = substrate: CCCCCCC(=O)C(=O)O; test: purified protein, by the assay type; format: biochemical, Lactobacillus casei ssp. pseudoplantarum; conditions: other: reduction, pH 7.0, 0.1 mM NADH
[21] = substrate: CSCCC(=O)C(=O)O; test: purified protein, by the assay type; format: biochemical, Lactobacillus casei ssp. pseudoplantarum; conditions: other: reduction, pH 7.0, 0.1 mM NADH
[22] = substrate: O=C(O)C(=O)CS; test: purified protein, by the assay type; format: biochemical, Lactobacillus casei ssp. pseudoplantarum; conditions: other: reduction, pH 7.0, 0.1 mM NADH

NADH concentration at which the optimal reaction velocity was reached ([1]; pH 7.0, 0.7 mM 2-keto-4-methylpentanoic acid): 0.10 mM
Molecule: NC(=O)C1=CN([C@@H]2O[C@H](COP(=O)(O)OP(=O)(O)OC[C@H]3O[C@@H](n4cnc5c(N)ncnc54)[C@H](O)[C@@H]3O)[C@@H](O)[C@H]2O)C=CC1 [NADH]

Replacement of the coenzyme NAD+ ([2]; checked at test concentrations up to 10 mM): cannot replace
Molecule: NC(=O)c1ccc[n+]([C@@H]2O[C@H](COP(=O)([O-])OP(=O)(O)OC[C@H]3O[C@@H](n4cnc5c(N)ncnc54)[C@H](OP(=O)(O)O)[C@@H]3O)[C@@H](O)[C@H]2O)c1 [NADP]

Rotation of Production Solution [3]: -0.047 ° | % conversion [3]: 100% | Product concentration [3]: 7.0 mM
Molecule: CC(C)CC(=O)C(=O)O [2-keto-4-methylpentanoic acid]

Rotation of Production Solution [3]: -0.115 ° | % conversion [3]: 100% | Product concentration [3]: 7.0 mM
Molecule: O=C(O)C(=O)Cc1ccccc1 [2-keto-3-phenylpropionic acid]

Rotation of Production Solution [3]: -0.071 ° | % conversion [3]: 98% | Product concentration [3]: 6.9 mM
Molecule: CSCCC(=O)C(=O)O [2-keto-4-(methylmercapto)-butyric acid]

Second part, the molecule before the results:

Molecule: NC(=O)C1=CN([C@@H]2O[C@H](COP(=O)(O)OP(=O)(O)OC[C@H]3O[C@@H](n4cnc5c(N)ncnc54)[C@H](OP(=O)(O)O)[C@@H]3O)[C@@H](O)[C@H]2O)C=CC1 [NADPH]
Replacement of the coenzyme NADH ([1]; checked up to a test concentration of 0.2 mM): cannot replace

Molecule: NC(=O)c1ccc[n+]([C@@H]2O[C@H](COP(=O)([O-])OP(=O)(O)OC[C@H]3O[C@@H](n4cnc5c(N)ncnc54)[C@H](O)[C@@H]3O)[C@@H](O)[C@H]2O)c1 [NAD^+, nicotinamide-adeninedinucleotide]
NAD+ concentration at which the optimum conversion is reached ([2]; pH 8.0, 12 mM D,L-2-hydroxy-4-methylpentanoic acid): 4.5 mM

B1: D-2-hydroxy-4-methylpentanoic acid dehydrogenase (Lacticaseibacillus paracasei) (protein)
chain: T1 sequence (P17584 1-333)
notes: 500 g Lactobacillus casei ssp. pseudoplantarum (DSM 20008) wet mass was suspended in 50 mM phosphate buffer; endogenous in cells; host or cells: Lactobacillus casei ssp. pseudoplantarum DSM 20008, enzyme isolated from the cells grown in house
Km [4]: 1400 µM | Vmax [4]: 20.2 µmol/min/mg | Km [5]: 1400 µM | Vmax [5]: 20.2 µmol/min/mg | Km [6]: 700 µM | Vmax [6]: 10.8 µmol/min/mg | Km [7]: 470 µM | Vmax [7]: 11.3 µmol/min/mg | Km [8]: 310 µM | Vmax [8]: 10.0 µmol/min/mg | Km [9]: 1500 µM | Vmax [9]: 2.6 µmol/min/mg | Km [10]: 10 µM | Km [11]: 450 µM | Km [12]: 150 µM | Vmax [12]: 304.4 µmol/min/mg | Km [13]: 1100 µM | Vmax [13]: 32.6 µmol/min/mg | Km [14]: 4800 µM | Vmax [14]: 16.9 µmol/min/mg | Km [15]: 60 µM | Vmax [15]: 27.4 µmol/min/mg | Km [16]: 1700 µM | Vmax [16]: 45.9 µmol/min/mg | Km [17]: 2200 µM | Vmax [17]: 26.2 µmol/min/mg | Km [18]: 110 µM | Vmax [18]: 59.1 µmol/min/mg | Km [19]: 110 µM | Vmax [19]: 58.4 µmol/min/mg | Km [20]: 310 µM | Vmax [20]: 54.0 µmol/min/mg | Km [21]: 620 µM | Vmax [21]: 82.1 µmol/min/mg | Km [22]: 400 µM | Vmax [22]: 104.5 µmol/min/mg
